Data on 2 compounds can be found in publication PMC9779004, “Structural, Thermodynamic and Enzymatic Characterization of N,N-Diacetylchitobiose Deacetylase from Pyrococcus chitonophagus” (International Journal of Molecular Sciences, 2022).

Experiment [1] has as its target T1, Pch-Dac (N,N-diacetylchitobiose deacetylase) (Thermococcus chitonophagus, UniProt A0A160VQZ8).
T1 construct: gene CHITON_0574; full gene in pET151D-TOPO, N-terminal 6xHis-TEV tag cut, expressed in E. coli BL21-Magic
T1 sequence (A0A160VQZ8 1-267): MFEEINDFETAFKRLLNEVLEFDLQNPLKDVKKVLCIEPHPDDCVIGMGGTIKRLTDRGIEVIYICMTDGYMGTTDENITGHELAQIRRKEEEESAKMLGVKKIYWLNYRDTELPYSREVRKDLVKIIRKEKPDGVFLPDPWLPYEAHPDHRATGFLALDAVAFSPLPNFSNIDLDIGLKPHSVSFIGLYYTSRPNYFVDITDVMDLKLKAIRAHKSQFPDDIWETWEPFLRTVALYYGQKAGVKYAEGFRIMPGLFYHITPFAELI
Briefly: ITC total heat (Happ) and 1H NMR. To be noted: ITC pH 6.5, 75 °C; NMR HEPES pH 7.5; non-reducing-end deacetylation. The class given is biochemical.

Experiment [2] deals with N,N-diacetylchitobiose deacetylase from Pyrococcus chitonophagus (Pyrococcus chitonophagus DSM 10152). Nature of the experiment: crystal structure; three crystal forms: P2(1) with (GlcNAc)2 (two hexamers in the asymmetric unit), P3(2)21 unliganded (half a hexamer, other half by the crystallographic two-fold axis), P2(1)2(1)2(1) (one hexamer); data at 100 K.
Experiment [3] has the same target. Nature of the experiment: SEC-SAXS; stock solution 4.7 mg/mL, Superdex 200 Increase 5/150 GL, injected at 4 °C, 0.35 mL/min; main peak fitted with the crystallographic hexamer, chi^2 = 1.2. On the technique in general: In gel filtration, larger molecules generally elute earlier.
For experiment [4] the target is unchanged. Briefly: SAXS; batch mode, dilution series 0.2-3.48 mg/mL in Buffer A (20 mM TRIS pH 7.4, 200 mM NaCl), room temperature; curves fitted with the crystallographic hexamer and a 'dodecameric' model (CRYSOL, OLIGOMER).

With `CC(=O)N[C@H]1[C@H](O[C@H]2[C@H](O)[C@@H](N)C(O)O[C@@H]2CO)O[C@H](CO)[C@@H](O)[C@@H]1O` (stereo partly drawn) [GlcNAc-GlcN, 1,4-β-D-acetyl glucosaminyl-D-N-glucosamine], in experiment [1], the “ITC total heat (Happ) and 1H NMR” value was “Reaction was observed only in the case of GlcNAc-GlcN”.

Take “N,N-diacetylchitobiose deacetylase from Pyrococcus chitonophagus (enzyme)”: the stoichiometry N in experiment [2], in experiment [3] and in experiment [4] was 6 throughout. This compound also came in with a percent of the scattering accounted for by the hexameric model in experiment [4] of 84 to 87%.

By stoichiometry N is commonly meant a count of units in the complex or per binding partner.
